Results from patent US20090192289A1 (Genentech, published 2009).
Where no end group is shown, it is not given here.

What was measured:
[1] = target: T1, GST-Omi PDZ fusion protein (human, UniProt O43464 359-458); assay: phage ELISA on GST-Omi PDZ after three rounds of selection
T1 construct: also called GST-hOmiPDZ; hOmi PDZ domain; not shown: glutathione S-transferase (GST) encoded by plasmid pGEX6P-3
T1 sequence: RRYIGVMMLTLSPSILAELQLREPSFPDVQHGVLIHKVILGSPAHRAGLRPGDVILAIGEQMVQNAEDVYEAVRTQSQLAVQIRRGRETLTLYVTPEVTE
Experimental: Selection for Omi PDZ peptides—Previously described procedures were used to isolate peptides that bound to a GST-Omi PDZ fusion, using libraries of random decapeptides fused to either the C terminus(18) or octapeptide fused to the N terminus(19) of the M13 gene-8 major coat protein, designated as libC or libN, respectively. After three rounds of selection, individual clones were grown in a 96-well format in 500 μL of 2YT broth supplemented with carbenicillin, kanamycin and KO7, and the culture supernatants were used directly in phage ELISAs(19) to detect peptides that bound specifically to Omi PDZ. Peptide sequences derived from positive clones were aligned and tabulated. A total of 95 positive colonies from libC and 89 from libN were analyzed. (see Table II). […] The sequences were selected after three rounds of sorting with IPTG induction. Hydrophobic residues (A, F, I, L, M, V, W, Y) are italicized and bolded, n is the number of siblings.

[2] = target: T1, GST-Omi PDZ fusion protein; assay: competition ELISA
Experimental: (§1) Affinity Assays—The binding affinities of peptides for Omi PDZ were determined as IC₅₀ values using a previously described competition ELISA(18). The IC₅₀ value was defined as the concentration of peptide that blocked 50% of PDZ domain binding to immobilized peptide. Assay plates were prepared by immobilizing an amino-terminally biotinylated peptide (biotin-GWTMFWV) on maxisorp plates coated with NeuTravidin and blocked with BSA. A fixed concentration of GST-Omi PDZ fusion protein (20 nM) in PBS, 0.5% BSA, 0.1% Tween 20 (PBT buffer) was preincubated for 1 h with serial dilutions of peptide and then transferred to the assay plates. After 1 h incubation, the plates were washed with PBS, 0.05% Tween 20, incubated for 30 min with HRP/anti-GST antibody (1:10,000) in PBT buffer, washed again, and detected with 3,3′,5,5′-Tetramethyl-benzidine/H₂O₂ (TMB) peroxidase substrate.

[3] = target: T1, GST-Omi PDZ fusion protein; assay: competition ELISA, 20 nM GST-Omi PDZ, immobilized biotin-GWTMFWV as competitor
Experimental: as §1

B1: libC phage-displayed peptide SEQ ID NO:33 (peptide)
chain: LYSIYRFFWA
modifications: not fully specified
notes: not shown: M13 gene-8 major coat protein (P8)
B1: binds [1].

B2: libN phage-displayed peptide GGFWWGPAG (peptide)
chain: GGFWWGPAG
modifications: not fully specified (C-terminus)
notes: 5 siblings; not shown: M13 gene-8 major coat protein (P8)
B2: binds [1].

B3: libN phage-displayed peptide SEQ ID NO:52 (peptide)
chain: STDYWWGCG
modifications: not fully specified (C-terminus)
notes: as for B1
B3: binds [1].

B4: libN phage-displayed peptide SEQ ID NO:54 (peptide)
chain: SSDYWWGCG
modifications: not fully specified (C-terminus)
notes: as for B1
B4: binds [1].

Ac-WTMFWV-OH (also called WTMFWV) [hOmi_c1_t1]: binds [2].

B5: libN phage-displayed peptide GIAGFWWDG (peptide)
chain: GIAGFWWDG
modifications: not fully specified (C-terminus)
notes: 9 siblings; not shown: M13 gene-8 major coat protein (P8)
B5: binds [1].

B6: libN phage-displayed peptide SEQ ID NO:56 (peptide)
chain: WIAGFWWDG
modifications: not fully specified (C-terminus)
notes: as for B1
B6: binds [1].

B7: libC phage-displayed peptide SEQ ID NO:42 (peptide)
chain: SLLNWVLYLV
modifications: not fully specified (N-terminus)
notes: as for B1
B7: binds [1].

B8: libC phage-displayed peptide SEQ ID NO:35 (peptide)
chain: SFYILRYFWV
modifications: not fully specified
notes: as for B1
B8: binds [1].

B9: libN phage-displayed peptide SEQ ID NO:49 (peptide)
chain: SHWWGGWLG
modifications: not fully specified (C-terminus)
notes: 17 siblings; not shown: M13 gene-8 major coat protein (P8)
B9: binds [1].

B10: libC phage-displayed peptide SEQ ID NO:41 (peptide)
chain: TGMSWTIWFL
modifications: not fully specified (N-terminus)
notes: as for B1
B10: binds [1].

B11: libN phage-displayed peptide SEQ ID NO:51 (peptide)
chain: WGYWWGPGG
modifications: not fully specified (C-terminus)
notes: as for B1
B11: binds [1].

B12: libC phage-displayed peptide SEQ ID NO:46 (peptide)
chain: IPLHWIFYLV
modifications: not fully specified (N-terminus)
notes: as for B1
B12: binds [1].

B13: libC phage-displayed peptide SEQ ID NO:27 (peptide)
chain: PGRWGPFFWV
modifications: not fully specified
notes: as for B1
B13: binds [1].

B14: libN phage-displayed peptide SEQ ID NO:53 (peptide)
chain: GDIVCTWGG
modifications: not fully specified (C-terminus)
notes: as for B1
B14: binds [1].

B15: libC phage-displayed peptide SEQ ID NO:43 (peptide)
chain: GLMPLLFFWV
modifications: not fully specified (N-terminus)
notes: as for B1
B15: binds [1].

In the case of Ac-TMFWV-OH (also called TMFWV) [hOmi_c1_t2], the “fold lower affinity vs SWTMFWV (hOmi_c1)” value [2] is reported as 15 fold.

B16: libC phage-displayed peptide SEQ ID NO:28 (peptide)
chain: DSLLFDFWWA
modifications: not fully specified
notes: as for B1
B16: binds [1].

B17: libC phage-displayed peptide SEQ ID NO:38 (peptide)
chain: TRANWLFFWV
modifications: not fully specified (N-terminus)
notes: as for B1
B17: binds [1].

B18: libN phage-displayed peptide SEQ ID NO:55 (peptide)
chain: GIVWFWWDG
modifications: not fully specified (C-terminus)
notes: as for B1
B18: binds [1].

B19: libC phage-displayed peptide WLDRFPHFWV (peptide)
chain: WLDRFPHFWV
modifications: not fully specified (N-terminus)
notes: 15 siblings; not shown: M13 gene-8 major coat protein (P8)
B19: binds [1].

B20: libC phage-displayed peptide SEQ ID NO:39 (peptide)
chain: RIPFLFFLWA
modifications: not fully specified (N-terminus)
notes: as for B1
B20: binds [1].

B21: libC phage-displayed peptide SEQ ID NO:40 (peptide)
chain: SKLRLFFMWV
modifications: not fully specified (N-terminus)
notes: as for B1
B21: binds [1].

B22: libN phage-displayed peptide SEQ ID NO:50 (peptide)
chain: ATEFWWGVG
modifications: not fully specified (C-terminus)
notes: 10 siblings; not shown: M13 gene-8 major coat protein (P8)
B22: binds [1].

Binder H-SHWWGGWL-NH2 [hOmi_n1_t1] has an IC50 [3] of 17.6 µM.

B23: libC phage-displayed peptide SEQ ID NO:34 (peptide)
chain: FLGFLEFFWI
modifications: not fully specified
notes: as for B1
B23: binds [1].

B24: libC phage-displayed peptide KVASWTMFWV (peptide)
chain: KVASWTMFWV
modifications: not fully specified
notes: 42 siblings; not shown: M13 gene-8 major coat protein (P8)
B24: binds [1].

B25: libC phage-displayed peptide SEQ ID NO:29 (peptide)
chain: NQRVWIFWLI
modifications: not fully specified
notes: as for B1
B25: binds [1].

B26: libC phage-displayed peptide SEQ ID NO:36 (peptide)
chain: TMSDWLFWWA
modifications: not fully specified (N-terminus)
notes: as for B1
B26: binds [1].

B27: libC phage-displayed peptide SEQ ID NO:45 (peptide)
chain: WVDSCPIFWV
modifications: not fully specified (N-terminus)
notes: as for B1
B27: binds [1].

H-SHWWGGWLG-NH2 (synthetic peptide from libN) [hOmi_n1] gave an IC50 [3] of 21.6 µM.

B28: libC phage-displayed peptide SEQ ID NO:44 (peptide)
chain: TVHSWFLWFV
modifications: not fully specified (N-terminus)
notes: as for B1
B28: binds [1].

B29: libC phage-displayed peptide SEQ ID NO:32 (peptide)
chain: YPTYWTFWWV
modifications: not fully specified
notes: as for B1
B29: binds [1].

H-ATEFWWGVG-NH2 (synthetic peptide from libN) [hOmi_n4] showed an IC50 [3] of 32.4 µM.

B30: hOmi_c1 (peptide)
peptide: Ac-SWTMFWV-OH
notes: synthetic peptide from libC; also called SWTMFWV
With B30 the IC50 [3] was 3.3 µM.

Ac-AWTMFWV-OH (also called AWTMFWV) [hOmi_c1_A7]: binds [2].

B31: libN phage-displayed peptide WEWIGMEWG (peptide)
chain: WEWIGMEWG
modifications: not fully specified (C-terminus)
notes: 31 siblings; not shown: M13 gene-8 major coat protein (P8)
B31: binds [1].

B32: libN phage-displayed peptide AGDSWWWGG (peptide)
chain: AGDSWWWGG
modifications: not fully specified (C-terminus)
notes: 4 siblings; not shown: M13 gene-8 major coat protein (P8)
B32: binds [1].

Binder Ac-MFWV-OH (also called MFWV) [hOmi_c1_t3] has an IC50 [3] of 24.1 µM.

B33: libC phage-displayed peptide SEQ ID NO:31 (peptide)
chain: DRLNWLFFWI
modifications: not fully specified
notes: as for B1
B33: binds [1].

B34: libN phage-displayed peptide ESLWWGWEG (peptide)
chain: ESLWWGWEG
modifications: not fully specified (C-terminus)
notes: 7 siblings; not shown: M13 gene-8 major coat protein (P8)
B34: binds [1].

B35: libC phage-displayed peptide SEQ ID NO:30 (peptide)
chain: SSFFRFWFV
modifications: not fully specified
notes: as for B1
B35: binds [1].

In the case of H-SHWWGGW-NH2 (also called SHWWGGW) [hOmi_n1_t2], the IC50 [3] is reported as 26 µM.
